Laboratory results taken from PMC9667302.

Biological target: Bluetongue virus (BTV-1) membrane penetration protein VP5 (bluetongue virus (BTV-1))
Assay: cryo-EM structure

“Bluetongue virus (BTV-1) membrane penetration protein VP5 (natural protein)” was tested. Which stoichiometry N did it give?
Its stoichiometry N is 3.
